The target of the data set is W-SCAT protein (Venus - caspase 3 substrate site - Venus, expressed from pRSETB/W-SCAT in Escherichia coli).

B1: active caspase 3 (CPP32, MBL) (protein)
chain: SGISLDNSYKMDYPEMGLCIIINNKNFHKSTGMTSRSGTDVDAANLRETFRNLKYEVRNKNDLTREEIVELMRDVSKEDHSKRSSFVCVLLSHGEEGIIFGTNGPVDLKKITNFFRGDRCRSLTGKPKLFIIQACRGTELDCGIETDSGVDDDMACHKIPVEADFLYAYSTAPGYYSWRNSKDGSWFIQSLCAMLKQYADKLEFMHILTRVNRKVATEFESFSFDATFHAKKQIPCIVSMLTKELYFYH
Consider B1, for which the Fluorescent anisotropy (mA) of W-SCAT after 2 hours at 37 C with 1 unit of active caspase 3, measured with Beacon (control without casp3: 225.8) is 276 mA.
